Source: patent publication US20060057652A1 (UNIVERSITY OF MASSACHUSETTS, published 2006)

Experiments:
[1] = biological target: T1, β-actin (UniProt P60709 2-375); test: anti-FLAG affinity purification from Ad-Apwt-infected H1299 cells, SDS-PAGE, MALDI-TOF
T1 construct: also called beta-actin

[2] = biological target: T2, anaphase promoting complex subunit 1 (APC1) (Homo sapiens, UniProt Q9H1A4 1-1944); test: anti-FLAG immunoprecipitation from H1299 cells, APC1 immunoblot
T2 construct: Endogenous protein in lysates of H1299 (or PFF) cells, detected with a polyclonal anti-APC1 antibody or by MALDI-TOF; also called Cyclosome subunit 1; Protein TSG24
T2 sequence (Q9H1A4 whole entry, one chain of several): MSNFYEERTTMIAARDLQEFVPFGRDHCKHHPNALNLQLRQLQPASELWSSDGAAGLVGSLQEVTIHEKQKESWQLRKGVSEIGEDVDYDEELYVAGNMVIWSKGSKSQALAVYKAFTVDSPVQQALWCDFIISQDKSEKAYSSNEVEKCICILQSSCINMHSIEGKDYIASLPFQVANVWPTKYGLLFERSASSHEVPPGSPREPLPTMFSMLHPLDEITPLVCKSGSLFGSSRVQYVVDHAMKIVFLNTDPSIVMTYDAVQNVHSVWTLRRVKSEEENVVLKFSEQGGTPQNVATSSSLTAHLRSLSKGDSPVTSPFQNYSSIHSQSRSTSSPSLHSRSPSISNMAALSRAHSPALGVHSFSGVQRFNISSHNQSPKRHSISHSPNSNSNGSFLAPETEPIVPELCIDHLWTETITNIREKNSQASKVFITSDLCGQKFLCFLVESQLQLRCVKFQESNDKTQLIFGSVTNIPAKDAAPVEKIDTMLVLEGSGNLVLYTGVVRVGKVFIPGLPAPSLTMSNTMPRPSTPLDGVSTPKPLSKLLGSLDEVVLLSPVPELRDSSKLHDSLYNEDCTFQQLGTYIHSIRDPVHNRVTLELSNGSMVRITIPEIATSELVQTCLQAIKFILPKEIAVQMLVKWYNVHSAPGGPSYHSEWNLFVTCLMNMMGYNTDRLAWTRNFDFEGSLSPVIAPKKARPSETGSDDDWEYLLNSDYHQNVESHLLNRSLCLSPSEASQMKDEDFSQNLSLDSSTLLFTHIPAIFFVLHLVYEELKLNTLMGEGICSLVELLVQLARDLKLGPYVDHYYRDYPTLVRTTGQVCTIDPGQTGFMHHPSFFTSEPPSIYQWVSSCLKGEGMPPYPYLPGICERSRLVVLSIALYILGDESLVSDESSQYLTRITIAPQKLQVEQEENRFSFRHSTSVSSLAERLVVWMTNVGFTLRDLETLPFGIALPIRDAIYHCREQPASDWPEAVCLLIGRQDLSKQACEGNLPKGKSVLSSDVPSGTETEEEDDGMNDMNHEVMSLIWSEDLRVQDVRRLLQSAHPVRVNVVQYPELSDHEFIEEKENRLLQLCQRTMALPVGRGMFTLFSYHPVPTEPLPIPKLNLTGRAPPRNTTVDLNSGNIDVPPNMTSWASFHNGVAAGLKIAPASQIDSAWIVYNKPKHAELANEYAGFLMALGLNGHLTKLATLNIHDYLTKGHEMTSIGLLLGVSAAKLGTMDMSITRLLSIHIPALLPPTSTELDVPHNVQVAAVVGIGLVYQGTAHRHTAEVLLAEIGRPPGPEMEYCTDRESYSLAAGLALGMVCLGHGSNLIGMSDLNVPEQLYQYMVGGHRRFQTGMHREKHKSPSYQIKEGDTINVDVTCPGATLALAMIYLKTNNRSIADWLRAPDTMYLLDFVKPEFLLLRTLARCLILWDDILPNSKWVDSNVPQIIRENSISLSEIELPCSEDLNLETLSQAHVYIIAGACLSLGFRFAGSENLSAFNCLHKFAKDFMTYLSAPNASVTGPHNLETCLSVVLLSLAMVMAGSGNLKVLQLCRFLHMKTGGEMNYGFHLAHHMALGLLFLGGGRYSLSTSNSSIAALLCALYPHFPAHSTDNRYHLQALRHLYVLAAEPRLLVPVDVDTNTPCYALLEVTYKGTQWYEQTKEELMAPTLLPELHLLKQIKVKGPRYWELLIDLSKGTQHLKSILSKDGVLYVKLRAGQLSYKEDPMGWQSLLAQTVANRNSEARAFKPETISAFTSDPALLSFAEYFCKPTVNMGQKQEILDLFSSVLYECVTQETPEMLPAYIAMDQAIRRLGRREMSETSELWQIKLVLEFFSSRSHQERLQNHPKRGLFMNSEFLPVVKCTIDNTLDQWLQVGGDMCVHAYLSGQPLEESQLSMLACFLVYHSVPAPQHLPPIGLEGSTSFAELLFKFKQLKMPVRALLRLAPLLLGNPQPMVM

Row | Binder | binding result [1] | binding result [2]
1 | FLAG-tagged wild type Apoptin expressed from adenovirus Ad-Apwt (other, Expressed in infected H1299 or PFF cells and pulled down from lysates on anti-FLAG beads; also called FLAG-Apoptin; FLAG-tagged Apoptin) MNALQEDTPPGPSTVFRPPTSSRPLETPHCREIRIGIAGITITLSLCGCANARAPTLRSATADNSESTGFKNVPDLRTDQPKPPSKKRSCDPSEYRVSELKESLITTTPSRPRTAKRRIRL | binds | –
2 | triple FLAG-tagged Ap-pmNLS2 (other, not shown: triple FLAG tag) MNALQEDTPPGPSTVFRPPTSSRPLETPHCREIRIGIAGITITLSLCGCANARAPTLRSATADNSESTGFKNVPDLRTDQPKPPSKKRSCDPSEYRVSELKESLITTTPSRPRTAAAAIRL | – | no binding
3 | triple FLAG-tagged Ap-SV40NLS (other, The make-up (Apoptin 1-88 plus SV40 LT NLS) is described for the GFP construct; not shown: triple FLAG tag) MNALQEDTPPGPSTVFRPPTSSRPLETPHCREIRIGIAGITITLSLCGCANARAPTLRSATADNSESTGFKNVPDLRTDQPKPPSKKRPKKKRKV | – | no binding
